Experiments:
Assay type in all cases: cell-based, C57BL/6J mice
[1] = test system: bone-marrow derived dendritic cells; assay: Microarray gene expression analysis in BMDCs; details: 4 h
Method: All methods mentioned in this example were carried out as described in Example 1. BMDCs were seeded into a tissue-culture-treated 96-well plate in VLE-RPMI 1640 media (10% FCS, 10% Penicillin-Streptomycin, 50 μM β-Mercaptoethanol) and stimulated with 200 nM huBPI or muBPI. 4 h after stimulation, gene expression analysis was performed by microarray analysis (Affymetrix Mouse Gene 2.0 ST, FIGS. 2A and 2B).

[2] = test system: co-culture of lymphnode cells (LNCs) and dendritic cells (DCs); assay: Co-culture of lymph node cells and BMDCs, cytokine secretion; details: BPI 200 nM, n=5 (FIG. 12)
Method: All methods mentioned in this example were carried out as described in the preceding examples. Peripheral lymph nodes of C57BL/6J mice were collected to obtain lymph node cells. The cells were isolated by pressing the lymph nodes through a […] cell strainer, flushing the homogenate with either RPMI-VLE or PBS, and collecting the cell dispersion in a 50 ml falcon tube. The suspension was centrifuged (300×g, 21° C., 8 min) and the cell pellet was resuspended in 2 to 5 ml of cell culture medium (VLE-RPMI 1640 medium containing glutamine supplemented with 10% heat-inactivated FCS, 10% penicillin-streptomycin and 50 μM sterile-filtered β-Mercaptoethanol). After this procedure the cell suspension was washed once or twice in cell culture medium or PBS by centrifugation (300×g, 21° C., 8 min). BMDCs were seeded and co-cultured with a threefold excess of peripheral lymph node cells in the presence or absence of BPI (200 nM) in in cell culture medium. Supernatans were collected and measured as described in preceding examples.

BMDCs = assay: Quantitative real-time PCR gene expression in BMDCs; details: BMDCs stimulated with BPI; rtPCR normalized to HPRT, also microarray (FIGS. 2B and C)
Method: Gene expression analyses using rtPCR were performed 30 min, 1 h, 2 h, 4 h, 8 h, 12 h, 24 h and 48 h after the stimulation.
After stimulation, cells were lysed and RNA was isolated using RNeasyR Mini Kit (#74106, Qiagen). Remaining DNA in the sample was digested using TURBO DNA-free™ Kit (#AM1907, ThermoFisher Scientific). Finally, the RNA concentration was measured with a NanoDrop 1000 (Thermo Scientific). The isolated RNA was transcribed into complementary DNA (cDNA) using the iScript™ª Advanced cDNA Synthesis Kit (#1725038, Bio-Rad).
To analyze altered gene transcription, in particular of genes CXCL10, HPRT, IL-2, IL-6, and IL-12p40, in response to different stimulatory reagents, quantitative real-time PCR (qRT-PCR) was performed using SYBR-Green Master Mix (LightCycler® 480 SYBR Green I Master, #4707516001, Roche). Gene-specific primers synthesized by Thermo Fisher Scientific, Microsynth, Biomers, and Metabion were used. PCR reaction was performed using the HT 7900 Real-Time PCR system (Applied Biosystems). SDS software version 2.4 (Applied Biosystems) was used to analyze the gene expression, which was normalized to the housekeeping gene HPRT. 2^-ΔΔCT method was used to analyze the data.

CD3+CD8+ T cells = assay: Intracellular IFNγ staining of CD8+ T cells after supernatant stimulation; details: SN BPI vs SN NT, 24h, n=4 (FIG. 13D)
Method: Naive CD4+CD25-CD44-CD62L+ T cells were isolated from peripheral lymph nodes and spleen of C57BL/6J mice and purified by MACS and FACS. Naïve CD4+ T cells were cultured in the presence of aCD3 and aCD28 antibodies and dendritic cell-derived supernatant after stimulation with BPI (SN BPI, BPI 200 nM) or after stimulation with ODN 1826 (SN CpG, ODN 1826 20 nM) or after stimulation with BPI and ODN 1826 (SN BPI+CpG, BPI 200 nM, ODN 1826 20 nM) or supernatant without addition of BPI or ODN 1826 (SN NT). On day five, cytokine levels were measured by Luminex. • A. Th1 differentiation as shown by detection of IFNγ (n=3). • B. Th17 differentiation as shown by detection of IL-17 (n=3). • C. […] Lymph node cells were stimulated with aCD3 and aCD28 antibodies and SN BPI or SN NT and incubated for 6h before adding a protein transport inhibitor cocktail and incubating for additional 16h. Cells were fixed and permeabilized and stained for CD3, CD4, CD8, and IFNγ. Lines are connecting the amount of IFNγ-producing CD3+CD8+ T cells after treatment with SN BPI or SN NT for 24h. • Bars represent the means±standard error of the mean. Statistics for comparison were performed with the paired Student's t-test (A to C) or the ratio paired Student's t-test (D).
All described work steps were conducted on ice. […]

B1: bactericidal/permeability-increasing protein (protein)
chain: RIKIPDYSDSFKIKHLGKGHYSFYSMDIREFQLPSSQISMVPNVGLKFSISNANIKISGKWKAQKRFLKMSGNFDLSIEGMSISADLKLGSNPTSGKPTITCSSCSSHINSVHVHISKSKVGWLIQLFHKKIESALRNKMNSQVCEKVTNSVSSELQPYFQTLPVMTKIDSVAGINYGLVAPPATTAETLDVQMKGEFYSENHHNPPPFAPPVMEFPAAHDRMVYLGLSDYFFNTAGLVYQEAGVLKMTLRDDMIPKESKFRLTTKFFGTFLPEVAKKFPNMKIQIHVSASTPPHLSVQPTGLTFYPAVDVQAFAVLPNSSLASLFLIGMHTTGSMEVSAESNRLVGELKLDRLLLELKHSNIGPFPVELLQDIMNYIVPILVLPRVNEKLQKGFPLPTPARVQLYNVVLQPHQNFLLFGADVVYK
modifications: labeled with NT647 (Monolith NT Protein Labeling Kit RED-NHS) in the MST experiments
notes: recombinant human BPI, aa32-487 of huBPI with N-terminal HA signal peptide, expressed in HEK293T cells
[1]; 200 nM huBPI or muBPI, microarray (FIG. 2A)
  immunostimulatory effect on BMDCs (gene expression): shows an immunostimulatory effect on BMDCs
[1]; 200 nM, microarray (FIG. 2B)
  induced genes important for activation and priming of T cells: IL-2 is the highest induced cytokine
[2]
  secretion of IL-4 in co-culture of LNCs and BMDCs: not observed
[2]; threefold excess of lymph node cells
  secretion of IFNγ and IL-17 in co-culture of LNCs and BMDCs: Significant secretion
BMDCs
  CXCL10, IL-2, IL-6, and IL-12p40 mRNA expression: increase of CXCL10, IL-2, IL-6, and IL-12p40 mRNA expression
CD3+CD8+ T cells
  activation of CD8+ T cells (IFNγ-producing CD3+CD8+ T cells): activation of CD8+ T cells
